Patent US20170166624A1 (University of Texas, published 2017)
Values joined by “and” are separate entries in the source; they are usually repeats but may differ in a detail not shown here. Identical values can stand only once.

T1: TGF-β2 K25R I92V K94R (TGF-β2TM) (UniProt P61812 303-414, K25R; I92V; K94R)
T1 construct: mature
T1 sequence (looked up): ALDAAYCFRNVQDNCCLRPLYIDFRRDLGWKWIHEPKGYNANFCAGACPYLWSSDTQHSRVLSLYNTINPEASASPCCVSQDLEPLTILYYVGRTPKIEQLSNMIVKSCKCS

T2: TGF-β3 (UniProt P10600 301-412)
T2 sequence (looked up): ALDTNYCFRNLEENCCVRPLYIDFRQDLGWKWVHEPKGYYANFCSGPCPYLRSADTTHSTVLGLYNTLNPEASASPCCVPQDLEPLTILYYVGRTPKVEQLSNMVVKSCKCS


Tests used:
[1] = target: T1, TGF-β2 K25R I92V K94R (TGF-β2TM); test: SDS-PAGE densitometry of the SEC-isolated complex (TGF-β2TM 51.6 pmol)
Text: RII:RIII:TGF-β2TM form a stable non-disassociating 1:1:1 complex in solution. […] The mixture was applied to a Superdex 200 size exclusion chromatography column and the UV absorbance of the column eluate at 280 nm was monitored. […] To determine the stoichiometry of the complex, a sample of the isolated RII:RIII:TGFβ2-TM complex was run on an SDS-PAGE gel along with known amounts of the individual components (FIG. 3d).

[2] = target: T1, TGF-β2 K25R I92V K94R (TGF-β2TM); test: SPR, receptor injected over immobilized TGF-β2TM
Description: (§1) FIG. 2. RII (R) and RIII (EU) form a 1:1:1 complex with TGF-β homodimers. (a) SPR sensorgrams in which increasing concentrations of RII and RIII were injected over a SPR sensor surface with immobilized TGF-β2TM. Mass normalized sensorgrams are shown in panels on the left. Plots of the mass normalized equilibrium response (Req) as a function of receptor concentration ([Receptor]), along with fits to Req=(Rₘₐₓ×[Receptor])/(Kd+[Receptor]), are shown on the right.
The TGF-β type III receptor binds TGF-β dimers with 1:1 stoichiometry. This was shown by comparing the maximal mass-normalized SPR response as increasing concentrations of the purified TGF-β type II receptor ectodomain (RII) and purified TGF-β type III receptor ectodomain (RIII) were injected over immobilized TGF-β2 K25R I92V K94R (TGF-β2TM), a variant of TGF-β2 that binds RII with high affinity (Baardsnes et al, 2009, Biochemistry, 48, 2146-2155; De Crescenzo et al, 2006, J Mol Biol, 355, 47-62).

TGF-β3 = target: T2, TGF-β3; test: SPR competition, receptor with 0.8 nM TGF-β3 over immobilized 1D11
Description: FIG. 6. SPR competition binding data in which increasing concentrations of RII (R), RIII (EU), and RII-RIII (REU) were pre-incubated with 0.8 nM TGF-β3 for 16 h and then injected over a high-density (20000 RU) SPR surface with the TGF-β monoclonal antibody 1D11. Data is presented in terms of the initial slope (which is directly proportional to the concentration of the free TGF-β3 concentration) as a function of the competitor (R, EU, or REU) concentration. Two independent measurements were performed for each of the receptor constructs studied (designated by −a and −b in the legend).
The initial slope of these sensorgrams, which is a linear function of the free TGF-β3 concentration, was then plotted as a function of the concentration of RII, RIII (EU), or RII-RIII (REU) (FIG. 6).

[3] = target: T1, TGF-β2 K25R I92V K94R (TGF-β2TM); test: SPR, RII injected over immobilized TGF-β2TM with or without 80 nM RIII (competitor RIII)
Description: as §1
The TGF-β type III receptor potentiates the binding of the TGF-β type II receptor, but reduces its binding stoichiometry to one per TGF-β homodimer. This was shown by performing SPR experiments in which increasing concentrations of RII were injected over immobilized TGF-β2TM in the absence or presence of a saturating concentration of RIII (80 nM) (FIG. 2b).

| maximal mass-normalized response relative to that of RII [2] | decrease of EC50 relative to RII or RIII (EU) (TGF-β3) | fold reduction of the maximal mass normalized binding response in the presence of 80 nM RIII [3] [fold] | Binder | amount in the isolated RII:RIII:TGF-β2TM complex [1] [pmol] |
| --- | --- | --- | --- | --- |
| ~0.5 fold (ratio to RII) | – | – | purified TGF-β type III receptor ectodomain (RIII) (receptor, EU was made in CHO Lec 3.2.8.1 cells and purified on NiNTA, which implies a His tag that is not explicitly stated for EU; also called EU; RIII (EU)) CELSPINASHPVQALMESFTVLSGCASRGTTGLPREVHVLNLRSTDQGPGQRQREVTLHLNPIASVHTHHKPIVFLLNSPQPLVWHLKTERLAAGVPRLFLVSEGSVVQFPSGNFSLTAETEERNFPQENEHLLRWAQKEYGAVTSFTELKIARNIYIKVGEDQVFPPTCNIGKNFLSLNYLAEYLQPKAAEGCVLPSQPHEKEVHIIELITPSSNPYSAFQVDIIVDIRPAQEDPEVVKNLVLILKCKKSVNWVIKSFDVKGNLKVIAPNSIGFGKESERSMTMTKLVRDDIPSTQENLMKWALDNGYRPVTSYTMAPVANRFHLRLENNEEMRDEEVHTIPPELRILLDPDHPPALDNPLFPGEGSPNGGLPFPFPDIPRRGWKEGEDRIPRPKQPIVPSVQLLPDHREPEEVQGGVDIALSVKCDHEKMVVAVDKDSFQTNGYSGMELTLLDPSCKAKMNGTHFVLESPLNGCGTRHRRSTPDGVVYYNSIVVQAPSPGDSAGWPDGYEDLEAGDNGFPGDGDEGETAPLSRAGVVVFNCSLRQLRNPSGFQGQLDGNATFNMELYNTDLFLVPSPGVFSVAENEHVYVEVSVTKADQDLGFAIQTCFLSPYSNPDRMSDYTIIENICPKDDSVKFYSSKRVHFPIPHAEVDKKRFSFLFKSVFNTSLLFLHCELTLCSRKKGSLKLPRCVTPDDACTSLDATMIWTMMQNKKTFTKPLAVVLQVD | 62.4 |
| – | ≥ 0.5 log units and ~3 fold | – | RII-RIII (REU) fusion (other) AAANGAVKFPQLCKFCDVRFSTCDNQKSCMSNCSITSICEKPQEVCVAVWRKNDENITLETVCHDPKLPYHDFILEDAASPKCIMKEKKKPGETFFMCSCSSDECNDNIIFSEEYNTSNPDGLGPVESSPGHGLDTAAACELSPINASHPVQALMESFTVLSGCASRGTTGLPREVHVLNLRSTDQGPGQRQREVTLHLNPIASVHTHHKPIVFLLNSPQPLVWHLKTERLAAGVPRLFLVSEGSVVQFPSGNFSLTAETEERNFPQENEHLLRWAQKEYGAVTSFTELKIARNIYIKVGEDQVFPPTCNIGKNFLSLNYLAEYLQPKAAEGCVLPSQPHEKEVHIIELITPSSNPYSAFQVDIIVDIRPAQEDPEVVKNLVLILKCKKSVNWVIKSFDVKGNLKVIAPNSIGFGKESERSMTMTKLVRDDIPSTQENLMKWALDNGYRPVTSYTMAPVANRFHLRLENNEEMRDEEVHTIPPELRILLDPDHPPALDNPLFPGEGSPNGGLPFPFPDIPRRGWKEGEDRIPRPKQPIVPSVQLLPDHREPEEVQGGVDIALSVKCDHEKMVVAVDKDSFQTNGYSGMELTLLDPSCKAKMNGTHFVLESPLNGCGTRHRRSTPDGVVYYNSIVVQAPSPGDSAGWPDGYEDLEAGDNGFPGDGDEGETAPLSRAGVVVFNCSLRQLRNPSGFQGQLDGNATFNMELYNTDLFLVPSPGVFSVAENEHVYVEVSVTKADQDLGFAIQTCFLSPYSNPDRMSDYTIIENICPKDDSVKFYSSKRVHFPIPHAEVDKKRFSFLFKSVFNTSLLFLHCELTLCSRKKGSLKLPRCVTPDDACTSLDATMIWTMMQNKKTFTKPLAVVLQVD | – |
| – | – | 2 | purified TGF-β type II receptor ectodomain (RII) (receptor) NGAVKFPQLCKFCDVRFSTCDNQKSCMSNCSITSICEKPQEVCVAVWRKNDENITLETVCHDPKLPYHDFILEDAASPKCIMKEKKKPGETFFMCSCSSDECNDNIIFSEEYNTSNPD | 61.8 |
